Publication PMC8409903

Biological target: T1, mixed lineage kinase domain-like pseudokinase (MLKL) (human (endogenous in platelets)), Q8NB16
T1 chain: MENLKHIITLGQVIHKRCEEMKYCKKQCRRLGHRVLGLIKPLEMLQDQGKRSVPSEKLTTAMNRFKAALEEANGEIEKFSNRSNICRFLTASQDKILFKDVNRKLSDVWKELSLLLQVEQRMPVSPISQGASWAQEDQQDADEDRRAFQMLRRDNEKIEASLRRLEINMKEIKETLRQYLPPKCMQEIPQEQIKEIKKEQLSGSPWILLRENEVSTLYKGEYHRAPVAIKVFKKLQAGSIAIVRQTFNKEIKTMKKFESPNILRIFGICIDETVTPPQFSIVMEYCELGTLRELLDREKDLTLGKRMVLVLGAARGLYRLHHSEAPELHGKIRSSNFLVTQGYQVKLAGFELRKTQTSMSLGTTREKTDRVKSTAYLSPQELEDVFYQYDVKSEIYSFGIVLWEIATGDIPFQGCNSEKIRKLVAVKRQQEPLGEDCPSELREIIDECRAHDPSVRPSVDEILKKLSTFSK
Test: western blot of platelets
Conditions: remark: other sources report otherwise

- stoichiometry N: 8
B1: mixed lineage kinase domain-like pseudokinase (MLKL), Q8NB16 1-471 (natural protein)
chain: MENLKHIITLGQVIHKRCEEMKYCKKQCRRLGHRVLGLIKPLEMLQDQGKRSVPSEKLTTAMNRFKAALEEANGEIEKFSNRSNICRFLTASQDKILFKDVNRKLSDVWKELSLLLQVEQRMPVSPISQGASWAQEDQQDADEDRRAFQMLRRDNEKIEASLRRLEINMKEIKETLRQYLPPKCMQEIPQEQIKEIKKEQLSGSPWILLRENEVSTLYKGEYHRAPVAIKVFKKLQAGSIAIVRQTFNKEIKTMKKFESPNILRIFGICIDETVTPPQFSIVMEYCELGTLRELLDREKDLTLGKRMVLVLGAARGLYRLHHSEAPELHGKIRSSNFLVTQGYQVKLAGFELRKTQTSMSLGTTREKTDRVKSTAYLSPQELEDVFYQYDVKSEIYSFGIVLWEIATGDIPFQGCNSEKIRKLVAVKRQQEPLGEDCPSELREIIDECRAHDPSVRPSVDEILKKLSTFSK
